Data published in US20140134176A1 (Pfizer, published 2014).
Positions count from the first letter of the chain named. Numbers in names are those of the source.

B1: MOR8457-GL-hIgG1-3m (antibody, V domains shown)
VH: EVQLLESGGGLVQPGGSLRLSCAASGFTFSSYAMSWVRQAPGKGLEWVSYISDDGSLKYYADSVKGRFTISRDNSKNTLYLQMNSLRAEDTAVYYCAKHPYWYGGQLDLWGQGTLVTVSS
VL: SYELTQPPSVSVSPGQTASITCSGDSLGSYFVHWYQQKPGQSPVLVIYDDSNRPSGIPERFSGSNSGNTATLTISGTQAMDEADYYCSAFTHNSDVFGGGTKLTVLG
notes: Germlined VH and VL, human IgG1-3m, wild type human lambda
B2: MOR8457-16 (antibody, human IgG1, lambda, V domains shown)
VH: B1 VH with E6Q, Q13K, K98R
VL: B1 VL with N52K
notes: Engineered variant of MOR8457-GL: heavy E6Q, Q13K; light N53K (Kabat); human IgG1-3m; also called MOR8547-16
B3: MOR8457-IKR-hIgG1-3m (antibody)
heavy: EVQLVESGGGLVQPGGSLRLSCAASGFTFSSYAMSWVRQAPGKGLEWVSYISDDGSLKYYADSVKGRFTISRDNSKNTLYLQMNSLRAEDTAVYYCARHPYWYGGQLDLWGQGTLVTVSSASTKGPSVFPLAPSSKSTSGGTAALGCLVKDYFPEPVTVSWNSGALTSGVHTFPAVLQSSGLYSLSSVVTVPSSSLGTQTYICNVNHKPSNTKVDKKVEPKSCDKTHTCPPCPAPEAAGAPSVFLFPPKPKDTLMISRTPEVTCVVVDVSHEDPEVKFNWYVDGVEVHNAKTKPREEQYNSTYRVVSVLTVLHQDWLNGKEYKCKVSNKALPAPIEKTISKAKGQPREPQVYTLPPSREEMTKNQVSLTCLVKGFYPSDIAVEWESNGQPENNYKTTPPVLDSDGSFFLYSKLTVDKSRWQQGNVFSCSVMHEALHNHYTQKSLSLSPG
light: SYELTQPPSVSVAPGQTARISCSGDSLGSYFVHWYQQKPGQAPVLVIYDDSNRPSGIPERFSGSNSGNTATLTISGTQAEDEADYYCSAFTHNSDVFGGGTKLTIKRQPKAAPSVTLFPPSSEELQANKATLVCLISDFYPGAVTVAWKADSSPVKAGVETTTPSKQSNNKYAASSYLSLTPEQWKSHRSYSCQVTHEGSTVEKTVAPTECS
notes: also called MOR8457-IKR-IgG1-3m

Key:
human PDGF-BB [1] = target: T1, human PDGF-BB (human, UniProt P01127 82-190); experiment: SPR (Biacore 2000), antibody captured via anti-human IgG, PDGF injected
T1 construct: Recombinant human PDGF-BB homodimer, bought (Biosource PHG0043; R&D Systems); also called hPDGF-BB; huBB
Method: (§1) Anti-human (A-D, I-K) or anti-mouse (E-H) IgG antibodies were immobilized in flow cells of CM5 sensor chips. 1 μg/mL of MOR8457-IKR-hIgG1-3m (A-D), MOR8457-mIgG1 (E-H) or MOR8457-GL-hIgG1-3m (I-K) was injected independently over the respective anti-human or anti-mouse surface for 10 seconds resulting in a stable anti-PDGF surface between 50-100 RU. Different concentration of PDGF proteins, 0.25, 0.5, and 1 nM, was then injected over the antibody surface for 2 minutes at a flow rate of 100 μl/min for binding. The complex was allowed to dissociate for 10 minutes. The surface was regenerated with a 30 second injection of 10 mM magnesium chloride leaving the surface ready for another round of anti-PDGF antibody capture and PDGF binding kinetics. Each of these three antibodies bound tightly to human (A, E, I), mouse (B, F, J) and rat (C, G, K) PDGF-BB. MOR8457-IKR-hIgG1-3m (D) and MOR8457-mIgG1 (H) bound to human PDGF-AB. Each sensorgram shown is one representative of three independent experiments.
(§2) In order to test the specificity and cross species reactivity, the binding affinities of three MOR8457 IgG variants, MOR8457-IKR-hIgG1-3m, MOR8457-mIgG1, and MOR8457-GL-hIgG1-3m, to different human PDGF ligands, including human PDGF-AA, -AB, -DD, as well as rat PDGF-BB (all obtained from R&D systems, Minneapolis, Minn.) and mouse PDGF-BB (Invitrogen, Carlsbad, Calif.) were tested. Briefly, anti-human or anti-mouse IgG (GE Healthcare) antibodies were immobilized in adjacent flow cells of a CM5 sensor chip between 8000-10,000 resonance units (RU) using amine coupling as directed by the manufacturer. Antibodies were diluted into PBS-NET (10 mM Phosphate pH 7.4, 287 mM NaCl, 2.7 mM KCl, 3.2 mM EDTA, 0.01% Tween 20) to 1 μg/mL and injected independently over the respective anti-human or anti-mouse surface for 10 seconds resulting in a stable anti-PDGF surface between 50-100 RU. PDGF proteins were diluted to 1 nM in PBS-NET and serially diluted two-fold to 0.25 nM. Each concentration of PDGF was then injected over the antibody surface for 2 minutes at a flow rate of 100 μl/min. The complex was allowed to dissociate for 10 minutes. The surface was regenerated with a 30 second injection of 10 mM magnesium chloride leaving the surface ready for another round of anti-PDGF antibody capture and PDGF binding kinetics.

rat PDGF-BB [2] = target: T2, rat PDGF-BB (rat, UniProt Q05028 74-182); experiment: as above
T2 construct: also called ratBB
Method: as §1, §2

mouse PDGF-BB [3] = target: T3, mouse PDGF-BB (mouse, UniProt P31240 82-190); experiment: as above
T3 construct: also called muBB; Mu PDGF-BB
Method: as §1, §2

human PDGF-BB [4] = target: T1, human PDGF-BB; experiment: cell-based or functional assay
human PDGF-BB [5] = target: T1, human PDGF-BB; experiment: SPR (Biacore 3000), antibody captured via anti-human IgG, PDGF injected
Method: (§3) FIG. 20, comprising panels A through D, depicts Biacore sensorgrams showing the binding kinetics of MOR8457-16 to different PDGF isoforms. MOR8457-16 was captured onto CM5 chips using an anti-human IgG antibody. The binding kinetics of each PDGF isoform was assessed by flowing different concentrations of each PDGF isoform over the captured MOR8457-16 surface. The concentrations of Hu-PDGF-BB (A) and Mu-PDGF-BB (C) were 0.25, 0.5, and 1 nM, and the concentrations for Hu-PDGF-AB (B) and Rat-PDGF-BB (D) were 0.5 and 1 nM. Each sensorgram is one representative of two independent experiments. Kinetics data were double referenced and fit using Biacore evaluation software version 4.1.
(§4) The binding affinities of MOR8457-16 to different PDGF isoforms were determined as previously described (Example 6) using a Biacore 3000 (GE Healthcare, Piscataway N.J.). Briefly, an anti-human IgG (GE Healthcare) antibody was immobilized in flow cells of a CM5 sensor chip between 8,000-10,000 resonance units (RU) using amine coupling as directed by the manufacturer. Test antibodies were diluted into PBS-NET (10 mM Phosphate pH 7.4, 287 mM NaCl, 2.7 mM KCl, 3.2 mM EDTA, 0.01% Tween-20) to 0.5 ug/mL and injected over the anti-human antibody surface for 30 seconds resulting in a stable anti-PDGF surface between 82-122 RU. PDGF proteins were diluted to 1 nM in PBS-NET and serially diluted two-fold to 0.25 nM. Each concentration of PDGF was then injected over the antibody surface for 2 minutes at a flow rate of 100 ul/min. The complex was allowed to dissociate for 10 minutes. The surface was regenerated with a 30 second injection of 3M magnesium chloride leaving the surface ready for another round of anti-PDGF antibody capture and PDGF binding kinetics. Kinetic data was double referenced (D. G. Myszka et al., J. Mol. Recognit. 12:279, 1999) using Scrubber2 software (Bio-Logic Software), then fit to a 1:1 binding model using Biacore evaluation software version 4.1. Protein concentrations of all PDGF isoforms were corrected with active concentrations determined under the condition of limiting mass transport (Karlsson et al., METHODS: A companion to Methods in Enzymology 6:99-110, 1994). Results shown were averages of two independent binding studies.

human PDGF-AB [6] = target: T4, human PDGF-AB (human, UniProt P04085 87-211, limits assumed); experiment: as above
T4 construct: Heterodimer of PDGF-A and PDGF-B, bought; also called huAB; Hu PDGF-AB
Method: as §3, §4

rat PDGF-BB [7] = target: T2, rat PDGF-BB; experiment: as above
Method: as §3, §4

mouse PDGF-BB [8] = target: T3, mouse PDGF-BB; experiment: as above
Method: as §3, §4

human PDGF-DD = human PDGF-DD (human, UniProt Q9GZP0 250-370, limits assumed); experiment: SPR (Biacore), antibody captured
Method: as §2, with “kinetics. Kinetic data were double referenced (Myszka et al., 1999, J. Mol. Recognit. 12 279) using scrubber2 software (Bio-Logic Software), then fit to a 1:1 binding model using Biacore evaluation software version 4.1. The results shown were an average of three independent binding studies.” for “kinetics.”

human PDGF-AA = human PDGF-AA (human, UniProt P04085 87-211, limits assumed); experiment: SPR (Biacore), antibody captured
Method: as §2, with “kinetics. Kinetic data were double referenced (Myszka et al., 1999, J. Mol. Recognit. 12 279) using scrubber2 software (Bio-Logic Software), then fit to a 1:1 binding model using Biacore evaluation software version 4.1. The results shown were an average of three independent binding studies.” for “kinetics.”

human PDGF-AB [9] = target: T4, human PDGF-AB; experiment: SPR (Biacore)
Method: as §2, with “kinetics. […]” for “kinetics.”

human PDGF-AB [10] = target: T4, human PDGF-AB; experiment: SPR (Biacore 2000), antibody captured via anti-human IgG, PDGF injected
Method: as §1, §2

T3 sequence (P31240 82-190 limits assumed): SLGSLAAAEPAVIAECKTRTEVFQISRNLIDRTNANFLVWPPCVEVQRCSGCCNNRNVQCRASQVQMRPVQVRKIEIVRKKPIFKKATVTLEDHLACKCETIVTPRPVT
T4 sequence (chain, as listed by the source limits assumed, chain 2 of 2, other chains not shown): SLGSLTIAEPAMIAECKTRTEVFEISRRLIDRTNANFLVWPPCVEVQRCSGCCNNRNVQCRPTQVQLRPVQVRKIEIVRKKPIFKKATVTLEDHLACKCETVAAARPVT
T1 sequence (P01127 82-190 limits assumed): as the sequence (chain, as listed by the source limits assumed, chain 2 of 2, other chains not shown) above
T2 sequence (Q05028 74-182 limits assumed): as the sequence (P31240 82-190 limits assumed) above, with I83V, I102V counted along it
Chain of human PDGF-DD (Q9GZP0 250-370 limits assumed): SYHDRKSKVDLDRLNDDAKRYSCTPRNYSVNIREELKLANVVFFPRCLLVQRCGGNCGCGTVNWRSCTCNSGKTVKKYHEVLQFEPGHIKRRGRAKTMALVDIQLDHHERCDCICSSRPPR

Binder	Kd (human PDGF-BB [1]) [nM]	koff (human PDGF-BB [1]) [s⁻¹]	kon (human PDGF-BB [1]) [M⁻¹ s⁻¹]	Kd (rat PDGF-BB [2]) [nM]	koff (rat PDGF-BB [2]) [s⁻¹]	kon (rat PDGF-BB [2]) [M⁻¹ s⁻¹]	Kd (mouse PDGF-BB [3]) [pM]	koff (mouse PDGF-BB [3]) [s⁻¹]	kon (mouse PDGF-BB [3]) [M⁻¹ s⁻¹]	IC50, inhibition of PDGF-BB (2.5 ng/ml) stimulated mesangial cell proliferation (human PDGF-BB [4]) [pM]	other results
B1	0.013	0.00019	1.5e+07	0.015	0.00024	1.7e+07	4	0.0002	5.3e+07	20	–
B2	–	–	–	–	–	–	–	–	–	14	Kd (human PDGF-BB [5]): 9.75 pM; koff (human PDGF-BB [5]): 0.000169 s⁻¹; kon (human PDGF-BB [5]): 1.73e+07 M⁻¹ s⁻¹; Kd (human PDGF-AB [6]): ~8.02 pM; koff (human PDGF-AB [6]): < 1e-05 s⁻¹; kon (human PDGF-AB [6]): 3.39e+06 M⁻¹ s⁻¹; Kd (rat PDGF-BB [7]): 8.88 pM; koff (rat PDGF-BB [7]): 0.000114 s⁻¹; kon (rat PDGF-BB [7]): 1.29e+07 M⁻¹ s⁻¹; Kd (mouse PDGF-BB [8]): 8.62 pM; koff (mouse PDGF-BB [8]): 0.00018 s⁻¹; kon (mouse PDGF-BB [8]): 2.16e+07 M⁻¹ s⁻¹
B3	0.028	0.000362	1.27e+07	0.025	0.000447	1.77e+07	10	0.000293	2.95e+07	–	binding result (human PDGF-DD): no binding (tested: 0.25-1 nM PDGF); binding result (human PDGF-AA): no binding (tested: 0.25-1 nM PDGF); fold reduction in binding against PDGF-BB (human PDGF-AB [9]): ~3 fold; Kd (human PDGF-AB [10]): 0.069 nM; koff (human PDGF-AB [10]): 0.00045 s⁻¹; kon (human PDGF-AB [10]): 6.5e+06 M⁻¹ s⁻¹; IC50, inhibition of PDGF-BB induced human mesangial cell proliferation (BrdU incorporation) (human PDGF-BB [4]): 13.4 pM
